From patent publication US20150219657A1
Values belong to the binder of their own block, whether it stands above or below them. Square brackets hold non-standard residues; d marks the D form. Ends that are not written are not given here. S1 = acylated D-Pra whose alkyne is clicked through a 1,2,3-triazole to acylated azidolysine-PEG2-biotin; dPra = C#CC[C@@H](N)C(=O)O

What was measured:
[1] = molecular target: Active Akt2 (with N terminal His6 tag) (human) (UniProt P31751); assay: single-component ELISA, bi-L as detection agent (FIG. 23A, given there as EC50)
Active Akt2 (with N terminal His6 tag) (human), sequence (P31751 other isoform, or with tags, fused parts or gaps): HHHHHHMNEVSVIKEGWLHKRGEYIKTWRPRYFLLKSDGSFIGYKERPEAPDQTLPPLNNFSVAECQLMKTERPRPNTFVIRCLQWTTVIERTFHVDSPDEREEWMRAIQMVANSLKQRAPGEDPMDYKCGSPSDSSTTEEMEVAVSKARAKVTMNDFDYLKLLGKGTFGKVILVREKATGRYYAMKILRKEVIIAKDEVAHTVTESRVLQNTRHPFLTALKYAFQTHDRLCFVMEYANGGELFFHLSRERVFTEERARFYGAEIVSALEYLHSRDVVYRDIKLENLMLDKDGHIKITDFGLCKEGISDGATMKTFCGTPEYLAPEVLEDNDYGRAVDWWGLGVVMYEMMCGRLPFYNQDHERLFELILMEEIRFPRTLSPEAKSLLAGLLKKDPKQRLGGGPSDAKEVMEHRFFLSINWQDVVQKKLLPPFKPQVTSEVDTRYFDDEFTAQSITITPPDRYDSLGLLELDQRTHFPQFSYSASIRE

[2] = molecular target: Active Akt2 (with N terminal His6 tag) (human) (UniProt P31751); assay: summary sentence of Example 1; method not given
[3] = molecular target: Active Akt2 (with N terminal His6 tag) (human) (UniProt P31751); assay: SPR, Biacore T100, biotinylated N-tL on SA chip, Akt2 protein as analyte, 10° C., 1:1 binding model
[4] = molecular target: Active Akt2 (with N terminal His6 tag) (human) (UniProt P31751); assay: single component ELISA, N-tL as surface-localized capture agent (FIG. 23A)
[5] = molecular target: Active Akt2 (with N terminal His6 tag) (human) (UniProt P31751); assay: single-component ELISA, mono-L as detection agent (FIG. 23A, given there as EC50)

affinity [1]: 1 µM
B1: bi-L (designed binder)
peptide 1: [dW][dK][dV][dK][dL]-NH2
peptide 2: [dH][dN]G[dY][dF][dPra]
modifications: also: arms joined via S3 linker (azide, PEG2-biotin) coupled to the wkvkl N-terminus, biotin-PEG2 label, triazole to a chain's N/C-terminus via S3 linker

affinity [2]: 20 nM | Kd [3]: 25 nM | EC50 [4]: 19 nM
B2: N-tL (designed binder)
peptide 1: [dW][dK][dV][dK][dL]
peptide 2: [dH][dN]G[dY][dF]
peptide 3: Ac-[dPra][dY][dY][dR][dF]G-NH2
modifications: triazole (positions not given here); not fully specified (N-terminus, bridges); also: C-terminal D-Pra clicked via triazole to L-azidolysine of S4, arm not given here, N-terminus coupled to S4 (azidolysine-PEG2-biotin)

affinity [5]: 3 µM
Binder: S1-[dW][dK][dV][dK][dL]-NH2 (designed binder) [mono-L]
